{"source": "paper PMC7397871", "molecular_target": "T1, ZC3H12B PIN + C3H1 crystallization construct (Homo sapiens, UniProt Q5HYM0 179-380)", "T1 sequence": "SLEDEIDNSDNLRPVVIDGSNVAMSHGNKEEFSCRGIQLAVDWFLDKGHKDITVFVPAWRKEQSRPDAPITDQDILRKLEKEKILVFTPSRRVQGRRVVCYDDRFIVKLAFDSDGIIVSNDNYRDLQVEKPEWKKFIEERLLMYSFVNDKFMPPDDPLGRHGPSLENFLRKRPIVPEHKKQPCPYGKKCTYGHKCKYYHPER", "assay": "X-ray crystallography"}
{"binder": "AAUGCGACAGUCGGUAGCAUC (ssRNA, phosphorothioate between nt 1 and 2 (5' end))", "note": "[21-nt HTR-SELEX-enriched RNA]", "values": [{"measurement": "binding result", "value": "binds"}]}
